From the supplement of paper PMC10126150
± gives the standard deviation of the averaged measurements.

The sequences below were run on ATP (assay: switch fluorescence ratio, 500 uM ATP over buffer (Cy3 cluster intensity, sum of 5 cycles each) (fold (ratio)); higher = stronger signal-on switching upon ATP binding; sequences stand for … in TCGTCGGCAGCGTCAGATGTGTATAAGAGACAGTTTTTTTTTTTTTTTTTTTTTTTTT…TC). Conditions: aptamer strand: ATP DNA aptamer (quencher-CACCTGGGGGAGTATTGCGGAGGAAGG + anchor), 100 nM annealed; ATP concentration: 500 uM.
Summary of the method: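 Clusters carrying Cy3-labelled switching strands on a modified Illumina MiSeq flow-cell were annealed to 100 nM quencher-labelled ATP aptamer and imaged in selection buffer. They were imaged again after 15 min with 500 uM ATP at 22 °C, over five buffer/ATP cycles with NaOH stripping and re-annealing in between. For each cluster, the fluorescence ratio is the summed Cy3 intensity of the target cycles divided by that of the buffer cycles, averaged per switch-domain sequence. Clusters outside 100-1000 RFU were left out.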
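Note: ATP exposure 15 min at 22 °C before imaging.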

In order of rising switch fluorescence ratio:
1. GTGGGGATTG  0.9379 ± 0.0016
2. GGTTGCCATA  0.944 ± 0.025
3. TTATAGTATC  0.948 ± 0.02
4. ATGTTTCACA  0.951 ± 0.011
5. GATGCGAGGT  0.952 ± 0.02
6. GGGGGCTTGA  0.954 ± 0.022
7. GATATGGATG  0.96 ± 0.032
8. GGTTATGTGT  0.964 ± 0.014
9. TGCCGTTTGC  0.965 ± 0.029
10. ATGAAGGTCT  0.968 ± 0.02
11. TTTAGTGCGG  0.973 ± 0.033
12. TTAGATTGGG  0.9736 ± 0.0075
13. GGTGGGTGAG  0.9745 ± 0.0094
14. ATTGATTTAG  0.9756 ± 0.0095
15. TTTAATGTCC  0.976 ± 0.07
16. TTAGGTAACG  0.977 ± 0.027
17. AAAGGTGATG  0.978 ± 0.04
18. ATGTTTGTAG  0.979 ± 0.045
19. ACTAGATTCT  0.979 ± 0.013
20. TTATTTGGA  0.98 ± 0.04
21. ATGTTATTGT  0.98 ± 0.049
22. GTCATAGTGG  0.9804 ± 0.003
23. AACCATTTGG  0.9825 ± 0.0046
24. CCTTAGTTTT  0.983 ± 0.022
25. CTCTACGAGA  0.983 ± 0.015
26. ACGGATGGCT  0.984 ± 0.023
27. GAAGGGAGCG  0.984 ± 0.045
28. TAGGGGATCA  0.9839 ± 0.0036
29. ATTGCATGCA  0.985 ± 0.026
30. GAACTAGGTT  0.9847 ± 0.0035
31. GCATGGAAAT  0.985 ± 0.045
32. GCATGTCTGC  0.9862 ± 0.0093
33. GGGGGCGATT  0.987 ± 0.017
34. TTTGGAGTTT  0.987 ± 0.053
35. CGATATATTA  0.9874 ± 0.0053
36. AAGTTAATCT  0.988 ± 0.019
37. TGTTTGTCA  0.989 ± 0.022
38. TGTTGTTTCG  0.989 ± 0.025
39. CGGTTTATAT  0.99 ± 0.013
40. TGGTTTCCGT  0.991 ± 0.027
41. AGTATGGTGC  0.991 ± 0.029
42. CGCGGGGGGT  0.992 ± 0.018
43. GATGATATTG  0.992 ± 0.012
44. TGGAAAAGTT  0.993 ± 0.017
45. TTCAGTGTTT  0.993 ± 0.023
46. TTGGGGTGGT  0.993 ± 0.032
47. ATACTTGATT  0.994 ± 0.025
48. TTTATAGGTC  0.994 ± 0.038
49. GGACGTGGGA  0.9944 ± 0.0036
50. GGGGTCGTTT  0.9947 ± 0.0067
51. TGCATGGTGG  0.995 ± 0.01
52. GCGTTTGGCT  0.996 ± 0.021
53. TAGTTGATAA  0.996 ± 0.018
54. GTGTGGCGGG  0.996 ± 0.011
55. CACTAAGGGA  0.996 ± 0.014
56. TACGTTGCTT  0.9959 ± 0.0022
57. CAGTAGGGTC  0.997 ± 0.014
58. TAGTTCGTTT  0.998 ± 0.016
59. TTAGGGGGTC  0.998 ± 0.036
60. AAGGGGAGTT  0.998 ± 0.028
61. GGGGAGTGTT  0.998 ± 0.039
62. GGTAGTGTTT  0.998 ± 0.035
63. ATGAAATCAG  0.9991 ± 0.0044
64. AGGAGTGGTA  0.999 ± 0.013
65. AGGGTTGTTG  0.999 ± 0.015
66. GATTCGTTTT  1 ± 0.031
67. AGGTTAAGTA  1 ± 0.027
68. GGCACACAGT  1 ± 0.015
69. ATGAGATAGT  1.002 ± 0.0049
70. TTTTCATAAG  1 ± 0.011
71. TTAGTGTGCT  1 ± 0.026
72. TACATGATGG  1 ± 0.035
73. GAACGGAAGG  1.014 ± 0.0043
74. TCCCGGGTTA  1.01 ± 0.013
75. AGAGGGGTTC  1.01 ± 0.029
76. TTTAGGGGGG  1.01 ± 0.099
77. TTTCTTGCGG  1.012 ± 0.0019
78. GTTTTGTTAT  1.01 ± 0.018
79. ATAAGTCTGT  1.008 ± 0.0073
80. CCAGTTTTCC  1.01 ± 0.036
81. GAGAGGGGCT  1.01 ± 0.02
82. GGGAAATGGT  1.01 ± 0.027
83. CAAAAAGTAG  1.014 ± 0.0062
84. ATCCTGGGGT  1.01 ± 0.029
85. TGCTGGCCAC  1.01 ± 0.013
86. AGTTTGAGGA  1.01 ± 0.014
87. AAATCCGGTT  1.008 ± 0.0028
88. TAGTTAGGGG  1.01 ± 0.058
89. ATCAAATCGG  1.01 ± 0.025
90. AATATCCTAT  1.01 ± 0.03
91. GCTGGGTTGC  1.01 ± 0.024
92. GATTAAATTT  1.01 ± 0.033
93. GCTATAGAAT  1.01 ± 0.028
94. CGTGCGTGCT  1.01 ± 0.023
95. AATGGGGGGT  1.02 ± 0.053
96. CTACGATCGA  1.02 ± 0.015
97. AGGCGGTGCG  1.02 ± 0.03
98. AGCTTGGATA  1.017 ± 0.01
99. ATATGTTGAA  1.02 ± 0.027
100. CTGAGTGCGG  1.02 ± 0.023
101. TTGTTAGTT  1.02 ± 0.03
102. AAACTTGGCA  1.017 ± 0.0088
103. TCACACGTCG  1.02 ± 0.013
104. CGAGGGGGGT  1.02 ± 0.027
105. GGGGGAGAAA  1.02 ± 0.033
106. CCTGGGGGG  1.02 ± 0.045
107. GGTATTAAGG  1.02 ± 0.013
108. TTAAAAAGTG  1.02 ± 0.068
109. GAGGTAAGAT  1.02 ± 0.032
110. GAATACCTTT  1.02 ± 0.013
111. AGGTGGGAGT  1.02 ± 0.021
112. CGCTGAAAGG  1.02 ± 0.026
113. TTGAACTGTG  1.02 ± 0.22
114. CGGGTTGCAT  1.023 ± 0.0087
115. GGGCCCAGCT  1.02 ± 0.031
116. TGTAACGGGG  1.03 ± 0.032
117. GATGGACATA  1.031 ± 0.0015
118. AAGTTAAAGG  1.03 ± 0.077
119. TTAGGCGTGT  1.03 ± 0.031
120. GGGGGAGTAC  1.025 ± 0.0084
121. TCGGGGTATC  1.03 ± 0.0046
122. TCTTTTTGCA  1.03 ± 0.014
123. CGTGGCAGGA  1.03 ± 0.021
124. GATGAAGAAA  1.025 ± 0.0026
125. CTGAGTTACT  1.027 ± 0.0025
126. ATTACCTGTT  1.03 ± 0.047
127. TTTATCCCGA  1.03 ± 0.048
128. CACGGCCGGA  1.03 ± 0.052
129. GGGGGGGGGC  1.03 ± 0.098
130. CGTTATATAA  1.04 ± 0.014
131. GGTTACGGTA  1.04 ± 0.031
132. AATTAAGGTT  1.04 ± 0.03
133. CAGGTAGTGC  1.04 ± 0.096
134. AGGGGACGGC  1.04 ± 0.0085
135. CCTTAAAAAA  1.04 ± 0.014
136. ACTGGGCCGG  1.04 ± 0.065
137. CGTGTGATGC  1.05 ± 0.015
138. TTGGGAGGTG  1.05 ± 0.051
139. TTGAAACTCG  1.063 ± 0.0023
140. AAAAAACCTA  1.063 ± 0.008
141. ACTGATGAAT  1.06 ± 0.023
142. AACCTTTTCA  1.067 ± 0.0026
143. TTCGATGATA  1.07 ± 0.08
144. GGGGCAGGCG  1.07 ± 0.35
145. CGCTTATTAA  1.072 ± 0.0033
146. AAGAACTATA  1.09 ± 0.023
147. GGGGGTAATT  1.1 ± 0.052
148. AGTTACGGGA  1.1 ± 0.03
149. TACGTTATAG  1.11 ± 0.025
150. TCCGGCGGAC  1.149 ± 0.0078
151. TAATACGTTA  1.197 ± 0.0026
152. ATACCAGGCG  1.24 ± 0.069
153. TAACAATTCC  1.26 ± 0.013
154. GCTATAGGTG  1.27 ± 0.057
155. ACCCGCACTT  1.82 ± 0.24
156. TAATCCGCTT  2.49 ± 0.2
157. CGGAACGCGA  4.09 ± 0.093
